For data set [1], the system named is T1, Str2 circular zymogen of RNase 1.
T1 sequence: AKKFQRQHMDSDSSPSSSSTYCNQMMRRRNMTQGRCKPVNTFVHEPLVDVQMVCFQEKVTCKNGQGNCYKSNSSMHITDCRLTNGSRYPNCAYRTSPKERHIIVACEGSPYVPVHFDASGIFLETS

The subject of data set [2] is T2, Str3 circular zymogen of RNase 1.
T2 sequence: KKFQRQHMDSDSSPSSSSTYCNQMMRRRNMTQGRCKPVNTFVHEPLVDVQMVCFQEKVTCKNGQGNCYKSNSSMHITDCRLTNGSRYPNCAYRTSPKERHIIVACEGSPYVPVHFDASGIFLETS

Data set [3] deals with T3, Str4 circular zymogen of RNase 1.
T3 sequence: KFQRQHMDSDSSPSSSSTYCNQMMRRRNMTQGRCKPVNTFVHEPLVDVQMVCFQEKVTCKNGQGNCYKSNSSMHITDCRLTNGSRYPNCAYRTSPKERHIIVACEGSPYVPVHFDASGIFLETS

The subject of a further data set is T4, wild-type RNase 1.
T4 sequence: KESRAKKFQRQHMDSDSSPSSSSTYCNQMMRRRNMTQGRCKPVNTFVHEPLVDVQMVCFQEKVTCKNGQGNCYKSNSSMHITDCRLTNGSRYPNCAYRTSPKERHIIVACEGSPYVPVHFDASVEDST

The record followed here is patent US20200405829.

For the substance HIV-1 protease, the figures for the kcat/KM (HIV-1 protease) in data set [1], in data set [2] and in data set [3] were 3900 M⁻¹ s⁻¹, 1300 M⁻¹ s⁻¹ and 2500 M⁻¹ s⁻¹, respectively. In the data set with wild-type RNase 1, the “proteolytic cleavage after 3 hours of treatment at 37° C.” value is “no detectable cleavage of wild-type RNase 1 was observed”.
